# Measured values taken from patent US8022177B2, “Peptides and calcium regulation in mammalian cells” (The Board of Trustees of the University of Illinois, priority 2005, dated 2011).
# Assays:
# [1] = target: T1, Cav3.1 (Homo sapiens, UniProt O43497); assay: Whole-cell patch clamp of Cav3.1 LVA current in HEK/Cav3.1 cells transfected with γ6/γ4 chimeric and truncated constructs (Example 2); type: cell-based; conditions: Table 1 (Example 2)
# T1 construct: expressed in transfected cells; host or cells: HEK-293, stably transfected
# T1 sequence (O43497 whole entry, the tested form may be a part): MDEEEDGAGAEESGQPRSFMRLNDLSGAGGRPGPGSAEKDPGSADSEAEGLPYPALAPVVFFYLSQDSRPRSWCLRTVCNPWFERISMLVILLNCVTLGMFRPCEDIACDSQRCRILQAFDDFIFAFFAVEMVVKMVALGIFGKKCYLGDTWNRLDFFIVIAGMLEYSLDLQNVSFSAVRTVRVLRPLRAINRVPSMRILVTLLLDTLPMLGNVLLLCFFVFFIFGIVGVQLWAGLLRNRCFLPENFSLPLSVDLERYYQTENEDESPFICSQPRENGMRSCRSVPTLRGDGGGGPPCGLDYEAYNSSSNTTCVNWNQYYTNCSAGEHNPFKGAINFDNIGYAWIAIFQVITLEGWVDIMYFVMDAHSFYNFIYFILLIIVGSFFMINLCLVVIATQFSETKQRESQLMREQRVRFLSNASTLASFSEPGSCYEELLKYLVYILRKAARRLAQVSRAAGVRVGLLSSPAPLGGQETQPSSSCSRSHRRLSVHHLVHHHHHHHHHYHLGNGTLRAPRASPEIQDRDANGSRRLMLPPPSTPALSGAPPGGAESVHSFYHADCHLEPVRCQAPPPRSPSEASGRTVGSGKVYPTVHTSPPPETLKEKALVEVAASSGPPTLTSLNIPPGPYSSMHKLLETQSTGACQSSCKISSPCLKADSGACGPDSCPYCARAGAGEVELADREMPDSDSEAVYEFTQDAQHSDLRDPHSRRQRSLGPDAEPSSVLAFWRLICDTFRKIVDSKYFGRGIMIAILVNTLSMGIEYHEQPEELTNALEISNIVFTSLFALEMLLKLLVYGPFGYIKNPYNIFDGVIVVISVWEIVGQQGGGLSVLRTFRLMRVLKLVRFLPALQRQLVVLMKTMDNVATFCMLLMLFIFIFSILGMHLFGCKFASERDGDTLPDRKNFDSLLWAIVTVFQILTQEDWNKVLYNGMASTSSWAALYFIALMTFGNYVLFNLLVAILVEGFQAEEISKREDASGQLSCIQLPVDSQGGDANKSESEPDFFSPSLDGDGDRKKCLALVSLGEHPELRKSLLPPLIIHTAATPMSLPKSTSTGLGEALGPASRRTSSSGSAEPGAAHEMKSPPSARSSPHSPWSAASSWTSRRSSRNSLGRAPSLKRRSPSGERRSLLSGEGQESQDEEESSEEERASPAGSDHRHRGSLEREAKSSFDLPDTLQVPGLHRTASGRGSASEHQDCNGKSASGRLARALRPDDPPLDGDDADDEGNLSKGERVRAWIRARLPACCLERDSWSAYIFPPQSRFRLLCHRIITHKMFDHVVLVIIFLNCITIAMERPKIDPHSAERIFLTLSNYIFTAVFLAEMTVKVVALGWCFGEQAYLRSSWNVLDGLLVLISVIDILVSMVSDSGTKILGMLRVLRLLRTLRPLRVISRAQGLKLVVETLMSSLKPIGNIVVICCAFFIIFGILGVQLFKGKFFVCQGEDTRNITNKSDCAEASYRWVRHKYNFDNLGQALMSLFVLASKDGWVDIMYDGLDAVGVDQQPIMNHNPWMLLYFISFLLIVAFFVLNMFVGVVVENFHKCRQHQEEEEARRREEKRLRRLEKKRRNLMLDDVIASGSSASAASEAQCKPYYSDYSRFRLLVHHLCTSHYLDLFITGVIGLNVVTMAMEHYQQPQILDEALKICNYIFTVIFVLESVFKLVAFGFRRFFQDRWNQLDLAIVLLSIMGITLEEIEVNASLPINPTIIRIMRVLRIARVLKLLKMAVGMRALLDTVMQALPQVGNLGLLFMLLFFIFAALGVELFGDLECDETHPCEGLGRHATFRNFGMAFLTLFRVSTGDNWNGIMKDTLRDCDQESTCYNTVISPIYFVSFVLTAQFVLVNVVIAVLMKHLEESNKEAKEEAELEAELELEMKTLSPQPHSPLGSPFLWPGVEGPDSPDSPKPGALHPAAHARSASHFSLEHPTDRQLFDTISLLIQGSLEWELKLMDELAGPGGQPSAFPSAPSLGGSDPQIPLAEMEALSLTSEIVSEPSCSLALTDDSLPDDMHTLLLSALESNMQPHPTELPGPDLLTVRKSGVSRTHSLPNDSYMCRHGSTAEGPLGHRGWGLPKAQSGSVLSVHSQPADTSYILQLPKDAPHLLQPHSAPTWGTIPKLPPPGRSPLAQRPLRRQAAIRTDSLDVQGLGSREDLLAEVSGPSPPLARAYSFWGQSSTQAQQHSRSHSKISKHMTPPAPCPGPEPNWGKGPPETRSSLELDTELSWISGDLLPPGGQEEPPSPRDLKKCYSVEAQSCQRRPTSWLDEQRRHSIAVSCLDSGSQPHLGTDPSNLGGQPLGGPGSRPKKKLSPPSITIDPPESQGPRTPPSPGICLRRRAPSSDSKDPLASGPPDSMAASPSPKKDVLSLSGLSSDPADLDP
# Description: Transfection—HEK-293 cell lines stably transfected with Cav3.1 were transiently transfected with vectors containing γ subunit cDNAs using Lipofectamine 2000 reagent (Invitrogen) as per the manufacturer's recommendations. HEK-293 cells were grown to 70-80% confluence before transfection.
# Electrophysiology—Whole-cell calcium currents were recorded using an Axopatch-1D patch clamp system and Clampex 8.0 software. Pipettes were fabricated from borosilicate glass and had typical resistances of 2-4 MΩ. The pipette solution contained (in mM): 130 NaCl, 10 EGTA, 2 MgCl2, 1 CaCl2, 10 HEPES, 3 Tris-ATP, and 0.3 Tris-GTP, adjusted to pH 7.4 with NaOH and 280 mOsm with sucrose. The bath solution contained (in mM): 137 NaCl, 1 KCl, 1 MgCl2, 0.33 NaH2PO4, 2 CaCl2, 10 HEPES, and 30 μM TTX, adjusted to pH 7.4 with NaOH and 280 mOsm with sucrose.
# Recordings from HEK-293 cells were made 48-96 hours post-transfection, at which time expression, as measured by GFP fluorescence, peaked. All HEK-293 data is from current records in which pipette and whole-cell capacitance were about 100% compensated and series resistance was compensated to >80%. Series resistance values were typically <10 MΩ (megaohms), and no records were used in which the voltage error (as defined by Ver=Imax×Ra) was greater than 5 mV. The holding potential of all protocols used for HEK-293 cells was −100 mV except for steady-state inactivation protocols where the holding potential was −120 mV. Current-voltage relationships for all HEK-293 cells were measured using 50 ms test depolarizations. Peak current amplitudes for activation curves were determined by fitting tail currents, elicited by stepping membrane voltage from varying test potentials to −60 mV, with the Boltzman equation. Test potential steps for activation protocols were of varied durations, corresponding to the time to peak of the elicited current. Inactivation curves were determined by fitting peak amplitudes of currents, observed in a test pulse to −20 mV, following 500 ms steps to varying potentials, with the Boltzman equation. Time to peak was determined using the current-voltage protocol described above. Inactivation time constants were determined by fitting the decay phase of currents to an exponential equation and deactivation time constants were determined by fitting the decay phase of tail currents to an exponential equation. […] When a double exponential equation was used to fit Cav3.1 tail currents, the magnitude of the fast component was about 10 fold that of the slow component. Currents were recorded at 40 kHz and on-line filtered at 5. In some cases currents were off-line filtered at 1 kHz to further reduce noise. Current-voltage relationships and tail currents were recorded from HEK cells using an on-line P/−4 subtraction procedure. The average membrane capacitance of untransfected HEK-293 cells in pilot experiments was 12.5+/−0.4 pF (n=8).
# Statistical Analysis—All data are reported as mean±SEM and tested for significance by one-way ANOVA. A value of P<0.05 was considered significant and when significant p-values were encountered groups were compared using the Tukey post-hoc test.
# [2] = system: endogenous LVA calcium current in HL-1 cells; assay: Whole-cell patch clamp of endogenous LVA calcium current in HL-1 cells transfected with γ subunits; type: cell-based, mouse
# Description: HL-1 cells were a gift from Dr. William C. Claycomb and were maintained as previously reported. Briefly, HL-1 cells were grown in HL-1 medium containing Claycomb medium (JRH Biosciences) supplemented with 10% fetal bovine serum (JRH Biosciences), 0.1 mM norepinephrine (Sigma), 2 mM L-glutamine (Sigma), and 100 U/ml:100 μg/ml:250 ng/ml of penicillin/streptomycin/ amphotericin B (Life Technologies) in a humidified 5% CO2 incubator at 37° C. Cells were passed when confluent at a 1:3 dilution into flasks or plates pre-coated with a 1:80 dilution of fibronectin and 0.02% gelatin (Sigma). Cells from passages 86-108 were used for this study.
# 2.3. Transfection. Untransfected HEK-293 cells, HEK-293 cell lines stably transfected with Cav3.1, and HL-1 cells were transiently transfected with vectors containing γ subunit, GFP, and modified CFP cDNAs using Lipofectamine 2000 reagent (InVitrogen) as per the manufacturer's recommendations. HEK-293 cells were grown to 70-80% confluence before transfection. HL-1 cells were grown to 50-75% confluence before transfection.
# 2.4. Electrophysiology. Whole-cell calcium currents were recorded using an Axopatch-1 D patch clamp system and Clampex 8.0 software. Pipettes were fabricated from borosilicate glass and had typical resistances of 2-4 MΩ. […]
# Recordings from HEK-293 cells were made 48-96 h posttransfection, at which time expression, as measured by GFP fluorescence, peaked. […] Current-voltage relationships for all HEK-293 and HL-1 cells were measured using 50 ms test depolarizations. Peak current amplitudes for activation curves were determined by fitting tail currents, elicited by stepping membrane voltage from varying test potentials to −60 mV, with the Boltzman equation. […] Inactivation curves were determined by fitting peak amplitudes of currents, observed in a test pulse to −20 mV, following 500 ms steps to varying potentials, with the Boltzman equation. Time to peak was determined using the current-voltage protocol described above. […]
Molecule,Activation V 0.5 [1],Activation k [1],"Deactivation tau @ −100 mV, Fast [1]",Inactivation V 0.5 [1],Inactivation k [1],Inactivation tau @−20 mV [1],Time to peak @ −20 mV [1],V peak [1],LVA current density [2] [pA/pF],Reduction of endogenous LVA current density from control ([2]; transient expression) [%]
"γ4: rat calcium channel γ4 subunit (AF361341), SEQ ID NO:47 (protein, listed as Rattus norvegicus) MVRCDRGLQMLLTTAGAFAAFSLMAIAIGTDYWLYSSAHICNGTNLTMDDGPPPRRARGDLTHSGLWRVCCIEGIYKGHCFRINHFPEDNDYDHDSSEYLLRIVRASSVFPILSTILLLLGGLCIGAGRIYSRKNNIVLSAGILFVAAGLSNIIGIIVYISSNTGDPSDKRDEDKKNHYNYGWSFYFGALSFIVAETVGVLAVNIYIEKNKELRFKTKREFLKASSSSPYSRMPSYRYRRRRSRSSSRSTEASPSRDASPVGLKITGAIPMGELSMYTLSREPLKVTTAASYSPDQDAGFLQMHDFFQQDLKEGFHVSMLNRRTTPV",−37.3 ± 0.9 (n = 8) mV,11.8 ± 0.5 (n = 8),1.84 ± 0.28 (n = 8) ms,−79.2 ± 1.5 (n = 7) mV,6.1 ± 0.2 (n = 7),15.8 ± 0.7 (n = 7) ms,5.2 ± 0.5 (n = 9) ms,−30.6 ± 1.5 (n = 9) mV,9.14±1.34,
"γ6L: rat calcium channel γ6 subunit, long isoform (AF361343), SEQ ID NO:48 (protein, listed as Rattus norvegicus) MMWSNFFMQEEDRRRTAVGRRRAQEQQNLGLTPEREGKIKLGLLVAIVGATLAVLAVGTEFWVELNTYKTNGSAVCEAAHLGLWKVCIKRLWQADVPAGRETCGPAELPGEANCTYFKFFTTGENAHIFQRTTKKEVNLAAAVIAVLGLTAMALGCLCVIMVLSKGAEFLLRLGAVCFGLSGLLLFVSLEVFRHSVRALLQGVNPETPPAPRLAYEYSWSLGCGVGAGLILLLGGVCFLLLTLPSWPWRSLCPKRGGPTA",−36.3 ± 6.2 (n = 4) mV,12.7 ± 1.5 (n = 4),1.54 ± 0.48 (n = 4) ms,−78.5 ± 2.6 (n = 6) mV,5.4 ± 0.3 (n = 6),18.6 ± 1.1 (n = 6) ms,6.0 ± 0.8 (n = 5) ms,−31.1 ± 3.1 (n = 9) mV,3.37±0.62,63
